Laboratory results as given in article PMC12633535 (bioRxiv, 2025).
Substitutions are numbered along the chain they refer to. Names and notes keep the numbering of the source.

B1: full-length β-catenin, untagged, wild type (natural protein, human, UniProt P35222 1-781, looked up)
chain: MATQADLMELDMAMEPDRKAAVSHWQQQSYLDSGIHSGATTTAPSLSGKGNPEEEDVDTSQVLYEWEQGFSQSFTQEQVADIDGQYAMTRAQRVRAAMFPETLDEGMQIPSTQFDAAHPTNVQRLAEPSQMLKHAVVNLINYQDDAELATRAIPELTKLLNDEDQVVVNKAAVMVHQLSKKEASRHAIMRSPQMVSAIVRTMQNTNDVETARCTAGTLHNLSHHREGLLAIFKSGGIPALVKMLGSPVDSVLFYAITTLHNLLLHQEGAKMAVRLAGGLQKMVALLNKTNVKFLAITTDCLQILAYGNQESKLIILASGGPQALVNIMRTYTYEKLLWTTSRVLKVLSVCSSNKPAIVEAGGMQALGLHLTDPSQRLVQNCLWTLRNLSDAATKQEGMEGLLGTLVQLLGSDDINVVTCAAGILSNLTCNNYKNKMMVCQVGGIEALVRTVLRAGDREDITEPAICALRHLTSRHQEAEMAQNAVRLHYGLPVVVKLLHPPSHWPLIKATVGLIRNLALCPANHAPLREQGAIPRLVQLLVRAHQDTQRRTSMGGTQQQFVEGVRMEEIVEGCTGALHILARDVHNRIVIRGLNTIPLFVQLLYSPIENIQRVAAGVLCELAQDKEAAEAIEAEGATAPLTELLHSRNEGVATYAAAVLFRMSEDKPQDYKKRLSVELTSSLFRTEPMAWNETADLGLDIGAQGEPLGYRQDDPSYRSFHSGGYGQDALGMDPMMEHEMGGHHPGADYPVDGLPDLGHAQDLMDGLPPGDSNQLAWFDTDL
B2: β-catenin D624K/E626K/E628K (purified, full length, untagged) (natural protein)
chain: B1 chain with D624K, E626K, E629K
B3: full-length β-catenin R469H, untagged (natural protein, human, UniProt P35222 1-781, looked up)
chain: B1 chain with R469H
B4: full-length β-catenin C466Y/A467T, untagged (natural protein, human, UniProt P35222 1-781, looked up)
chain: B1 chain with C466Y, A467T
B5: GST-tagged AXIN1 CBD peptide V475I (a.a. 435-498) (domain or fragment, human, UniProt O15169-1 435-498, looked up)
chain: CHKLPPAPAWHHFPPRCVDMGCAGLRDAHEENPESILDEHIQRVLRTPGRQSPGPGHRSPDSGH
B6: purified β-catenin E571K (full length, untagged) (natural protein, human, UniProt P35222 1-781, looked up)
chain: B1 chain with E571K
B7: GST-tagged AXIN1 CBD peptide V475I/L479W (a.a. 435-498) (domain or fragment, human, UniProt O15169-1 435-498, looked up)
chain: B5 chain with L45W
B8: GST-tagged TCF4 fragment (a.a. 1–53) (domain or fragment, UniProt Q9NQB0 1-53, looked up)
chain: MPQLNGGGGDDLGANDELISFKDEGEQEEKSSENSSAERDLADVKSSLVNESE
B9: GST-tagged AXIN1 CBD peptide, wild type (a.a. Cys435-His498) (domain or fragment, human, UniProt O15169-1 435-498, looked up)
chain: B5 chain with I41V

Tests used:
Test in all cases: BLI
[1] = molecular target: B7
[2] = molecular target: T1, GST-ICAT (a.a. Met1-Gln81) (UniProt Q9NSA3 1-81)
T1 sequence (looked up): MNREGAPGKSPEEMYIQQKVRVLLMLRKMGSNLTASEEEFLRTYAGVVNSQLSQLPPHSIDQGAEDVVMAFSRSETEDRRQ

[3] = molecular target: B8
[4] = molecular target: B1
[5] = molecular target: B1; remark: listed apart in the source
[6] = molecular target: T2, β-catenin C619Y/E620K (purified, full length, untagged) (human, UniProt P35222 1-781, C619Y | E620K)
T2 sequence (looked up): B1 chain with C619Y, E620K

[7] = molecular target: T3, full-length β-catenin E462K, untagged (human, UniProt P35222 1-781, E462K)
T3 sequence (looked up): B1 chain with E462K

Binder: B1
- fold decrease of koff against the wild-type CBD peptide [1]: ~20 fold
- half-life of the complex [1]: ~1 min

Binder: B2
- fold reduction of affinity against wild-type β-catenin [2]: ~10 fold
- fold reduction of affinity against wild-type β-catenin [3]: ~10 fold

Binder: B3
- fold reduction of affinity against wild-type β-catenin [3]: > 10 fold

Binder: B4
- fold reduction of affinity against wild-type β-catenin [3]: > 10 fold

Binder: B5
- Kd [4]: ~0.45 µM

Binder: B6
- fold reduction of affinity against wild-type β-catenin [3]: ~7 fold

Binder: B7
- Kd [4]: 0.04 µM

Binder: B8
- binding result [5]: binds
- binding result [6]: binds
- binding result [7]: binds

Binder: B9
- Kd [4]: 1 µM
